The text below walks through data of patent US20090258005A1 (TRUBION PHARMACEUTICALS, published 2009).

Residue numbers refer to the chain shown, from its start.

T1: L1-CR1 (Her054P)
T1 construct: also called 1.0
T1 chain: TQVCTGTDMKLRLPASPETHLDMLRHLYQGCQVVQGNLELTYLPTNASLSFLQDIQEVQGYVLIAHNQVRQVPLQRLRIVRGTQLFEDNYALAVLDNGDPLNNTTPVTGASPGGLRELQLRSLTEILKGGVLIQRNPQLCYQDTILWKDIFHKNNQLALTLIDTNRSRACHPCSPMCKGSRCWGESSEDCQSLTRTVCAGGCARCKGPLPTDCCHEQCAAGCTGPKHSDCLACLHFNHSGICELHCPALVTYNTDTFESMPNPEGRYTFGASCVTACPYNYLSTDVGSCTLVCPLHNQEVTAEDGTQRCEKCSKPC

B1: S1R3B1_BMV_1C12 (scFv, V domains shown)
VH: EVQLVQSGGGVVQPGRSLRLSCAASGFTFSSYGMHWVRQAPGKGLEWVAVISYDGSIKYYADSVKGRFTISRDNSKNTLYLQMNSLRAEDTAVYYCARTGEYSGYDTSGYSNWGQGTLVTVSS
VL: QSVLTQPPSASGTPGQRVTISCSGSSSNIGSNTVNWYQRLPGAAPQLLIYNNDQRPSGIPDRFSGSKSGTSGSLVISGLQSEDEADYYCASWDDSLNGRVFGGGTKLTVL
notes: scFv, soluble from bacterial periplasm in the screen; also called Her2_S1R3B1_BMV_1C12
B2: S1R3B1_BMV_1A10 (scFv, V domains shown)
VH: QMQLVQSGGGVVQPGRSLRLSCAASGFTFSSYGMHWVRQAPGKGLEWVAVISYDGSIKYYADSVKGRFTISRDNSKNTLYLQMNSLRAEDTGVYYCSKDRYSSGWYSSDAFDIWGRGTMVTVSS
VL: SSELTQDPAVSVALGQTVRITCQGDSLRSYYASWYQQKPGQAPVLVIYGKNNRPSGIPDRFSGSSSGNTASLTITGAQAEDEADYYCHSRDSSGNHVLFGGGTKLTVL
notes: scFv, soluble from bacterial periplasm in the screen; also called Her2_S1R3B1_BMV_1A10
B3: S1R3B2_DP47_1E8 (scFv, V domains shown)
VH: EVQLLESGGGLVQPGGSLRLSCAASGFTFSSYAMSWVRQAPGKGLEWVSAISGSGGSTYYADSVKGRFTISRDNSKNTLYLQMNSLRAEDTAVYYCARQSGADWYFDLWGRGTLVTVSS
VL: QAVLTQPSAVSGAPGQRVTISCTGTSSNIGTNYLVHWYQQRPGTAPQLLVSGNNTRPSGVTDRFSVSKSATSASLAITGLQAEDEADYYCQTYDINLRVWVFGGGTKVTVL
notes: scFv, on phage in the screen; also called Her2_S1R3B2_DP47_1E8
B4: S1R2C_CS_1H12 (scFv, V domains shown)
VH: EVQLVETGGGLVQPGGSLRLSCAASGFTFSSYGMNWVRQAPGKGLEWVSYISSSGNTIFYADSVKGRFTISRDSAKNSVSLQMNSLRDEDTAVYYCASYYSYYYGMDAWGQGTMVTVSS
VL: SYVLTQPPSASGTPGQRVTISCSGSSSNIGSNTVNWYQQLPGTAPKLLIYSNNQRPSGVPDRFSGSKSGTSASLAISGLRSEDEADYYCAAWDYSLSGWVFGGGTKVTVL
notes: scFv, on phage in the screen
B5: S1R3C1_CS_1B10 (scFv, V domains shown)
VH: QVQLQQSGAEVKKPGSSVKVSCKASGGTISNYAISWVRLAPGQGLEWMGSIVPLHGTTNFAQKFQGRVTITADESTSTSYMEVNVLTYEDTAMYYCASLNWGYWGRGTLVTVSS
VL: NFMLTQPHSVSESPGKTVTISCTGSSGSIASNYVQWYQQRPDSAPTTVIYEDNRRSSGVPDRFSGSIDSSSNSASLSISGLKTEDEADYYCQSYDSSGHVVFGGGTKLTVL
notes: scFv, on phage in the screen; also called Her2_S1R3C1_CS_1B10
B6: S1R3B2_BMV_1E1 (scFv, V domains shown)
VH: EVQLVETGGGVVQPGGSLSLSCAASGFTFSSYGMQWVRQAPGKGLEWVAFIRYDGSSEYYADSVKGRFTISRDNSKNTLYLQMNSLRAEDTAVYYCGRTLESSLWGKGTLVTVSS
VL: QSVLTQPPSVSAAPGQKVTISCSGSTSNIGNNYVSWYQQHPGKAPKLMIYDVSKRPSGVPDRFSGSKSGNSASLDISGLQSEDEADYYCAAWDDSLSEFLFGTRTKLTVL
notes: scFv, on phage in the screen; also called Her2_S1R3B2_BMV_1E1
B7: S1R2A_CS_1F7 (scFv, V domains shown)
VH: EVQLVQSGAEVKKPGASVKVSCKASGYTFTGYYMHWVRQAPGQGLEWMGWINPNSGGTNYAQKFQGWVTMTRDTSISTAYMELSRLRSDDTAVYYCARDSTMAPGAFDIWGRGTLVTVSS
VL: QSVLTQPPSVSVAPGQTARMTCGGNNIESKTVHWYQQKPGQAPVLVVYNDNVRPSGIPARFSGSNSGNTATLTINRVEAGDEADYYCQVWDSSRDQGVFGGGTKLTVL
notes: scFv, on phage in the screen
B8: S1R3C1_BMV_1H11 (scFv, V domains shown)
VH: GVQLVESGGGLVKPGGSLRLSCAASGFTFSSYNMNWVRQAPGKGLEWVSAISGSGGSTYYADSVTGRFTISRDNSKNTLYLQMNSLRAEDTAVYYCAKDTSGWYGDGMDVWGRGTLVTVSS
VL: DIQMTQSPSTLSASIGDRVTITCRASEGIYHWLAWYQQKPGKAPKLLIYKASSLASGAPSRFSGSGSGTDFTLTISSLQPDDFATYYCQQYSNYPLTFGGGTKLEIK
notes: scFv, soluble from bacterial periplasm in the screen; also called Her2_S1R3C1_BMV_1H11
B9: S1R3B1_DP47_1E1 (scFv, V domains shown)
VH: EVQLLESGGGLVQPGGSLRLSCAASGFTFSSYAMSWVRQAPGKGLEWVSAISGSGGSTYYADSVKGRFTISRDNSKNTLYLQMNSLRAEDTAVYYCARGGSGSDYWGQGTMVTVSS
VL: NFMLTQPHSVSGSPGKTVTISCTRSSGYIDSKYVQWYQQRPGSAPTTVIYEDNRRPSGVPDRFSGSIDSSSNSASLTISGLETEDEADYYCQSYDDTNVVFGGGTKVTVL
notes: scFv, soluble from bacterial periplasm in the screen; also called Her2_S1R3B1_DP47_1E1
B10: S1R3B2_BMV_1H5 (scFv, V domains shown)
VH: EVQLVQSGGGLVRPGGSLRLSCAASGFSFSDYYMTWIRQIPGKGLEWVAVIWNDGSDRYYADSVKGRFTISRDNSKNTLFLQMSSLRDEDTALYYCVRGGPTASSGFDYWGRGTLVTVSS
VL: SSELTQPASVSGSPGQSITISCTGTSSDVGGYNYVSWYLQHPGKAPKLMIYEGSKRPSGVSNRFSGSKSGNTASLTISGLQAEDEADYYCSSYTTRSTRVFGGGTKLTVL
notes: scFv, on phage in the screen; also called Her2_S1R3B2_BMV_1H5
B11: S1R3A1_BMV_1G4 (scFv, V domains shown)
VH: QVQLVESGAEVKKPGASVKVSCKASGYTFTSYDINWVRQAPGQRLEWMGWINAGNGNTKYSQKFQGRVTITRDTSASTAYMELRSLRSDDTAVYYCARGRSYGHPYYFDYWGQGTLVTVSS
VL: B10 VL with S1Q, E3V, L39Q
notes: scFv, soluble from bacterial periplasm in the screen; also called Her2_S1R3A1_BMV_1G4
B12: S1R3B2_DP47_1E10 (scFv, V domains shown)
VH: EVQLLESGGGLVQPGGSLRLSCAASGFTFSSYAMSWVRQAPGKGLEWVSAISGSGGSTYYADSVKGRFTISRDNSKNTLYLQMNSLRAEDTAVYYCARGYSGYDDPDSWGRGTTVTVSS
VL: HVILTQPPSTSGTPGQTVTISCSGSSSNIGSHYVYWYQQLPGTAPKLLIYRNNQRPSGVPDRFSGSKSGTSASLAISGLRSEDETDYYCAAWDDSLSGRVFGTGTKLTVL
notes: scFv, on phage in the screen; also called Her2_S1R3B2_DP47_1E10
B13: S1R3C1_CS_1A6 (scFv, V domains shown)
VH: EVQLVQSGAEVKKPGESLKISCKGFGYNFRSAWIGWVRQMPGKGLEWMGVIYPGDSDVRYSPSFQGQVTISADKSISTAYLQWSSLKASDTAMYYCTRPVGQWVDSDYWGKGTLVTVSS
VL: QSVLTQPPSASGTPGQRVTISCSGSSSNIGTNTVNWYQQLPGTAPKLLIYTSNQRPSGVPARFSASNSGTSASLAISGLRSEDEADYYCAAWDDKLSGAVFGGGTKLTVL
notes: scFv, on phage in the screen; also called Her2_S1R3C1_CS_1A6
B14: S1R3B2_DP47_1C9 (scFv, V domains shown)
VH: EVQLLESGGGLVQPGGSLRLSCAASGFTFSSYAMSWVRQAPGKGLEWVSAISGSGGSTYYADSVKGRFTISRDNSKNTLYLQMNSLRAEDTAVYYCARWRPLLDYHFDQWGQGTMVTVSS
VL: QSVLTQPPSASGTPGQTVTISCSGSSSNIGSSVVNWYQQFPGTAPKVLVYSNTQRPSGVPDRFSGSRSGTSASLAISGLQSEDEADYYCLAWDASLNGWVFGGGTKLTVL
notes: scFv, on phage in the screen; also called Her2_S1R3B2_DP47_1C9
B15: S1R3C1_DP47_1H1 (scFv, V domains shown)
VH: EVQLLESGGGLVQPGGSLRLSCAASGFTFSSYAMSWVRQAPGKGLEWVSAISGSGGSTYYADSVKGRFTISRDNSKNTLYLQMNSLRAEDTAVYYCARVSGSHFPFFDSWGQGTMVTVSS
VL: QSVLTQPPSVSVAPGQTARITCGGDKIGHKSVHWYQQKPGQAPVLLVYDDRKRPSGIPERFSGSNSGNTATLTISRVEAGDEAAYHCQVWDRSSDPYVFGTGTKVTVL
notes: scFv, soluble from bacterial periplasm in the screen; also called Her2_S1R3C1_DP47_1H1

The target in the first test is T1, L1-CR1 (Her054P). Nature of the test: ELISA, soluble scFv on L1-CR1. For orientation: In an ELISA, binding on a coated surface is turned into a signal by an enzyme label.
Description: (§1) Various Her2-Fc proteins (e.g., Her008P, Her017P, Her018P, etc.) or a negative control murine IgG2a protein were coated overnight at 4° C. on 96-well Nunc Maxisorp at a concentration of 1 ug/ml in PBS. Alternatively, pre-blocked streptavidin-coated plates (Greiner) were coated with biotinylated Her2-Fc proteins for 1 hour at room temperature at a concentration of 1 ug/ml in block buffer (3% skim milk/1% BSA/PBS). Plates were washed three times using PBS and blocked for 1 hour at room temperature in 3% skim milk/1% BSA/PBS. Phage or peripreps were prepared as described above and were blocked for 1 hour at room temperature in an equal volume of 6% skim milk/1% BSA/PBS. Blocked plates were washed five times with PBS and 50 μl/well of blocked phage or periprep were transferred to the appropriate plates and incubated for 1 hour at room temperature. […] Plates were incubated for a further hour at room temperature and washed seven times with PBS. Signal was developed using TMB, the reaction stopped with H₂SO₄ and the absorbance read at 450 nm on an Envision plate reader (Perkin Elmer).
In the case of B1, the binding result was “no binding”.

Take B2: the binding result is recorded as “no binding”.

For the molecule B3, the binding result is “no binding”.

Take B4: the binding result was “no binding”.

Consider B5, for which the binding result is listed as “no binding”.

For B6, the binding result was “no binding”.

Take B7: the binding result was “no binding”.

As for B8, the binding result is recorded as “no binding”.

As to B9, the binding result was “no binding”.

Turning to B10, the binding result is “no binding”.

B11: the binding result is listed as “no binding”.

As to B12, the binding result was “no binding”.

Turning to B13, the binding result is on record as “no binding”.

For B14, the binding result is on record as “no binding”.

On to B15, for which the binding result is “no binding”.

A further test concerns the target T2, EQR (Her017P).
T2 construct: also called HER2 EQR-Fc; HER2 EQR DIMER
Nature of the test: ELISA, soluble scFv on EQR.
Description: as §1
In the case of B2, the binding result is listed as “no binding”.

For B4, the binding result is reported as “no binding”.

For B6, the binding result is reported as “no binding”.

Regarding B8, the binding result is on record as “no binding”.

With B9, the binding result is given as “no binding”.

As for B11, the binding result is “no binding”.

With B12, the binding result is listed as “no binding”.

Take B15: the binding result is recorded as “no binding”.

Another test concerns the target T3, Her018P, Her2 ECD with a deletion in the CR2 (Domain IV) region expressed with a mIgG2a Fc tail (human; murine, UniProt P04626 23-599).
T3 construct: Shares the name HER018 with the trastuzumab SMIP; also called 1.8 (Dimer); dimeric HER018; not shown: murine IgG2a Fc tail (C-terminal dimerising carrier) and any junction residues
Briefly: ELISA, soluble scFv on Her018.
Turning to B2, the binding result is “no binding”.

Consider B3, for which the binding result is “no binding”.

As for B4, the binding result is “no binding”.

Turning to B6, the binding result was “no binding”.

B8: the binding result is given as “no binding”.

Regarding B9, the binding result was “no binding”.

Consider B11, for which the binding result is “no binding”.

Regarding B12, the binding result is recorded as “no binding”.

For B14, the binding result is given as “no binding”.

Turning to B15, the binding result is “no binding”.

The next test addresses T4, Full length HER2 (human, UniProt P04626 23-1255).
T4 construct: Endogenous HER2 on SKBR3, BT474, 22rv1, MDA-MB-175, MDA-MB-453 and MDA-MB-361 cells; also called HER2 on the cell surface; ErbB2
Briefly: cell ELISA, phage scFv, SKBR3 cells.
Take B3: the binding result was “binds”.

B4: the binding result was “binds”.

Take B6: the binding result was “binds”.

In the case of B7, the binding result was “binds”.

For B10, the binding result was “binds”.

Take B12: the binding result was “binds”.

Take B13: the binding result was “binds”.

With B14, the binding result is “binds”.
